Measured values reported in PMC12325586, “OFD1 inhibition induces BRCAness to create a therapeutic vulnerability to PARP inhibition in pancreatic cancer” (Nature Communications, 2025).
One block for each binder: values may come before it.

How the values were obtained:
[1] = molecular target: T1, OFD1-Flag recombinant protein (UniProt O75665 1-1012); assay: pull-down; in vitro peptide competition: 5 μg purified OFD1-Flag and E2F4-Strep II-HA with HA agarose; candidate peptides at 200 μM, validation at 0, 12.5, 25, 50, 100 and 200 μM; overnight at 4 °C; details: both partners purified
T1 construct: OFD1; also called recombinant OFD1; source: HEK293S, purified (Flag agarose, eluted with Flag peptide)
T1 sequence (looked up): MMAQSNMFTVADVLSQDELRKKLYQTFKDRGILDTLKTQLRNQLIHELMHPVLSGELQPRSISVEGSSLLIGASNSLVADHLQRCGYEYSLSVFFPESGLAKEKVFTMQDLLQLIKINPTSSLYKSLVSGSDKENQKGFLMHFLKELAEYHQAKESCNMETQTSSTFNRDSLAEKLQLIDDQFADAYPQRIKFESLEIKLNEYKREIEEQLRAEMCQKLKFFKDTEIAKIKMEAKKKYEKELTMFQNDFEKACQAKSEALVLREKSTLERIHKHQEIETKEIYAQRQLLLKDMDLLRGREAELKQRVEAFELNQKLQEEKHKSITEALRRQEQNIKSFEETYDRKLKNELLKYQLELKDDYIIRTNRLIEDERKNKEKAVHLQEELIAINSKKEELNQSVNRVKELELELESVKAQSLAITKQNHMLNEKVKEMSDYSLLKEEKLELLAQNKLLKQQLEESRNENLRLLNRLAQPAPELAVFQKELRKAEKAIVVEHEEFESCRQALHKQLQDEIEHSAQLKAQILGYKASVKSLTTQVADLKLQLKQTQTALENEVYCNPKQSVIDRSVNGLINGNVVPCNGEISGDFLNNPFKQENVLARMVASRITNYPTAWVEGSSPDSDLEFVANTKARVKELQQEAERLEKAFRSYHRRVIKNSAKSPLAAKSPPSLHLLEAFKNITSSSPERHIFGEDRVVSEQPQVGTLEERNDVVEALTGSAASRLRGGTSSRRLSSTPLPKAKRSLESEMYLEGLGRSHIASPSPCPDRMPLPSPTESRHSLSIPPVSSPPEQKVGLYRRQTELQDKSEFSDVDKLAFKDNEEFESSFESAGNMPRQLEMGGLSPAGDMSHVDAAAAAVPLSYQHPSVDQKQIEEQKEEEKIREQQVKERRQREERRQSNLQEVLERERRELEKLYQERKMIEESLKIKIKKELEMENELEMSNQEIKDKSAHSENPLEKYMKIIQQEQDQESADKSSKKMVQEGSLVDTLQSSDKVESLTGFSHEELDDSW

[2] = molecular target: T1, OFD1-Flag recombinant protein; assay: pull-down; 20 μg purified OFD1-Flag and E2F4-Strep II-HA with Flag agarose or HA agarose in TAP lysis buffer, 3-4 h at 4 °C; details: both partners purified

binding result [1]: binds
B1: E2F4 peptide spanning residues 283-302 (peptide)
peptide: ELSSLPLGPTTLDTRPLQSS
notes: the TAT-conjugated form was used on cells only; source: synthetic peptide

binding result [2]: binds
B2: E2F4-Strep II-HA recombinant protein (natural protein)
chain: not shown
notes: E2F4; also called recombinant E2F4; source: HEK293S, purified (StrepTactin XT beads, then HA agarose, eluted with HA peptide)
